4 molecules from publication PMC8685902, “Perception of structurally distinct effectors by the integrated WRKY domain of a plant immune receptor” can be followed below.

In data set [1] the target is AvrRps4^C, in planta processed C-terminal fragment of AvrRps4 (residues 134 to 221) (Pseudomonas syringae pv. pisi). Description: SEC; analytical gel filtration on a Superdex 75 10/300 column; proteins alone and after incubation at an equimolar (1:1) ratio. On the technique in general: Size exclusion chromatography separates by hydrodynamic size, large species first.
Data set [2] concerns the target RRS1^WRKY, integrated WRKY domain of RRS1-R (residues 1194 to 1273) (Arabidopsis). The data set is described as above.
Data set [3] has as its target AtWRKY41 (Thr125 to Ile204), DNA-binding domain (Arabidopsis) (UniProt Q8H0Y8). The data set can be described thus: ITC; AvrRps4^C (wild type or mutant) titrated into a solution of the WRKY domain; three independent experiments fitted globally to a 1:1 binding model (AFFINImeter). A general note: In ITC the heat of successive injections is recorded.
Data set [4] concerns the target RRS1B^WRKY, integrated WRKY domain of RRS1B (Asn1164 to Thr1241) (Arabidopsis) (UniProt Q9FL92). The data set is described as above.
Data set [5] addresses RRS1^WRKY, integrated WRKY domain of RRS1-R (residues 1194 to 1273) (Arabidopsis). The data set is described as above.
Data set [6] has as its target RRS1B^WRKY, integrated WRKY domain of RRS1B (Asn1164-Thr1241) (Arabidopsis) (UniProt Q9FL92). The data set can be described thus: ITC; MicroCal PEAQ-ITC; cell 20 uM RRS1WRKY, AtWRKY41 or RRS1BWRKY, syringe 200 uM AvrRps4C wild type or mutant; 25 C; buffer A4 (20 mM HEPES pH 7.5, 150 mM NaCl); triplicate, global fit to a 1:1 binding model (AFFINImeter).
Data set [7] concerns the target AtWRKY41 DNA-binding domain (Thr125-Ile204) (Arabidopsis) (UniProt Q8H0Y8). The description is as above.
Data set [8] addresses T1, RRS1 WRKY domain (RRS1-R) (UniProt C4B7M5 1194-1273).
T1 sequence: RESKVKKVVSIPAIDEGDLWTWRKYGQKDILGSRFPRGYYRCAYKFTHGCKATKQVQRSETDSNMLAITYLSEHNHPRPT
Description: EMSA; no effector; EMSA: 10 mM Tris-Cl pH 7.5, 50 mM KCl, 1 mM DTT, 5% glycerol; SPR: 10 mM HEPES pH 7.5, 250 mM NaCl, 0.005% Tween-20, 25 C (Biacore 8K, ReDCaT). The note with it: protein: recombinant; tags: 6xHis-MBP (pOPIN-M), cleaved with 3C; label: 5' Cy3 on forward strand; blunt. (In EMSA bound probe runs differently from free probe, usually more slowly.)

Data set [9] has as its target T2, AtWRKY41 DNA-binding domain (UniProt Q8H0Y8 125-204).
T2 sequence: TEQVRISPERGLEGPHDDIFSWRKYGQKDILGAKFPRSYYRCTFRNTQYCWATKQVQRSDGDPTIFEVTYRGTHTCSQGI
Described as above. As to conditions: protein: recombinant; tags: 6xHis-MBP (pOPIN-M), cleaved with 3C; label: 5' Cy3 on forward strand; blunt.

Chain of RRS1B^WRKY, integrated WRKY domain of RRS1B (Asn1164-Thr1241) (Arabidopsis) (Q9FL92 1164-1241): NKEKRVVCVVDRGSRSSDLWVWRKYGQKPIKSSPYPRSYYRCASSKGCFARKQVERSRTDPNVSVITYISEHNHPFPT
Chain of RRS1B^WRKY, integrated WRKY domain of RRS1B (Asn1164 to Thr1241) (Arabidopsis) (Q9FL92 1164-1241): as above

For orientation: stoichiometry N means the number of molecules, sites or subunits per partner or assembly. One may read the Kd as the constant that tells how readily two partners part at equilibrium. A high value points to a looser complex. Turning to “AvrRps4^C, in planta processed C-terminal fragment of AvrRps4 (residues 134 to 221) (domain or fragment)”, the figures for the stoichiometry N in [1], in data set [2] and in [5] were 2, 1 and 1, respectively. Also, the Kd was 20 nM in data set [3] and 103 nM in data set [5]. Also, the fold weaker binding than to RRS1^WRKY in [4] is 3 fold.
In the case of AvrRps4^C Q194A (domain or fragment), the fold reduction in affinity against wild-type AvrRps4^C in [5] was 7 fold.
On to “AvrRps4^C, the in planta processed C-terminal fragment of AvrRps4 (residues 134-221) (domain or fragment)”, for which the stoichiometry N amounted to 0.8 in data set [6] and 1.1 in [7].

B1: Cy3 W-box DNA (dsDNA)
DNA 1: CGCCTTTGACCAGCGC
DNA 2: GCGCTGGTCAAAGGCG
B1: the binding result in data set [8] and in [9] was “binds” each time.
